According to the nanobody polyreactivity screen of Harvey et al. (2022):

Assay: yeast display, Sf9 membrane polyspecificity reagent, FACS + sequencing; frameworks hold sequencing errors
How it was run: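 Genes from sorted yeast were amplified by colony PCR, read by MiSeq 2 × 250 sequencing and filtered on CDR length. These cells carried a synthetic nanobody library in Saccharomyces cerevisiae BJ5465 and were sorted by FACS into low and high (top ~1%) gates on anti-HA and streptavidin fluorescence. Polyreactivity is labelled according to the gate of origin.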

| Sequence | polyreactivity (PSR sort gate) |
| --- | --- |
| QVQLVESGGGLVQAGGSLRLICAASGSTFPYYDMGWYRQAPGKETELVAAISWSGDSTYYADSVKGRFTISRDNAKNTVYLQMNSLKPEDTAVYYCAAYSDYWSYLSTDDYWGQGTQVTVSS | low polyreactivity |
| QVQLVESGGGLVQAGGSLRLICAASGSTFSYNAMGWYRQAPGKEREFVAAITSSGSSTYYADSVKGRFTISRYNAKNTVYLQMNSLKPEDTAVYYCNAEVLFVAGQVQRNSGDYWGQGTQVTVSS | low polyreactivity |
| QVQLVESGGGLVQAGGSLRLICAASGSTFTRYAMGWYRQAPGKERELVAAITSSGSRTYYADSVKGRFTISRDNAQNTVYLQMNSLKPEDTAVYYFAALGDTRYVGMDHWGQGTQVTVSS | high polyreactivity |
| QVQLVESGGGLVQAGGSLRLICAASGSTFYFYAMGWYRQAPGKERELVAVISSGGSTYYADSVKGRFTISRDNAKNTVYLQMNSLKPEDTAVYYCAAYYYYTLYYRYDYWGQGTQVNVSS | low polyreactivity |
| QVQLVESGGGLVQAGGSLRLICAASGSTIGTNAMGWYRQAPGKERELVAAISRSGGRTYYADSVKGRFTISRDNAKNTVYLQMNSLKPEDTAVYYCAKAGLYTEYDYWGQGTQVTVSS | high polyreactivity |
| QVQLVESGGGLVQAGGSLRLICAASGSTLFYNAMGWYRQAPGKERELVAAISSGVRTNYADSVKGRFTISRDNAKITVYLQMNSLKPEDTALYYCAAATYNQDYSYDYWGQGTQVTVSS | low polyreactivity |
| QVQLVESGGGLVQAGGSLRLICAASGSTLNSYVMGWSRQAPGKERDMVATIRSGSSTNYADSVKGRFTISRDNAKNTVYFQMNSLIPEDTAVYSCAADAYSLCYDSWGQGTQVTVSS | low polyreactivity |
| QVQLVESGGGLVQAGGSLRLICAASGSTYRYYAMGWSRQAPGKERELVAGITGSGGSTYYADSVKGRFTISRDNAKNTVYLQMNSLNPEDTAVYDCATKLRRWRFYAAYDYWGQGTQVTVSS | high polyreactivity |
| QVQLVESGGGLVQAGGSLRLICAASGTFDHYAMGWDRQAPGKERELVAAISWSGGSTYYADSVKGRFTISRDNAKNTVYLQMNSLKPEDTAVYYCNAETDGYFESNDFDYWGQGTQVTVSS | high polyreactivity |
| QVQLVESGGGLVQAGGSLRLICAASGVIFLRYAMGWYRQAPGKERELVAAISSSGDITYYADSVKGRFTISRDNAKNTVYLQMYSLKPEDTAVYYCAATVGLWEYGYWGQGTQVTVSS | low polyreactivity |
| QVQLVESGGGLVQAGGSLRLICAASGVSNAKGWYRQAPGKERELVAAISRSGGSTYYADSVKGRFTISRDNAKNTVYIQMNSLKPEDTAVYYCAAGYRTRGLYSRLDWGQGTQVTVSS | high polyreactivity |
| QVQLVESGGGLVQAGGSLRLICAASGYIFTYNAMGWYRQAPGKERELVAAISSGDGRTYYADSVKGRFTISRDNAKNTVYLQMNSLTPEDTAVYYCNATRVVYRQAYLYGYDYWGQGTQVTVSS | low polyreactivity |
| QVQLVESGGGLVQAGGSLRLICAASGYIFVRNAMGWYRQAPGKEREFVATISRRGGTTYYADSVKGRFTISRDNAKNTVYLQMNSLKPEDTAVYYCAARNWPSRGYKYWGQGTQVTVSS | high polyreactivity |
| QVQLVESGGGLVQAGGSLRLICAASGYTFALYAIGWYRQATGKERELVAAITDSDGSTYADSVKGRFTISRDNAKNTFYLQMNSLKQEDTAVYYCAARDPHLQGYSYLSYLTMDYWGQGTQVTVSS | low polyreactivity |
| QVQLVESGGGLVQAGGSLRLICAASVSIFKAYAMGWYRQAPGKEMELVARIRYRGGSTYYADSVKGRFTISRDNAKNTVYLQMNSLKPEDTAVYYCAARFSPYHTDRGDYWGQGTQVTVSS | high polyreactivity |
| QVQLVESGGGLVQAGGSLRLICAATGSIFPVYAMVWSRQAPGKEREFVARIRFSGGRTYYADSVKGRYTISRDNAMNTVYLQMNSLKPEDTAVYYCAKDFRGYRWSYYWGQGTQVTVSS | high polyreactivity |

| Sequence | polyreactivity (PSR sort gate) |
| --- | --- |
| QVQLVESGGGLVQAGGSLRLICAATGSTFVYNAMGWYRQAPGKEREFVAVINWSGGRTYADSVKGRFTISRDNAKNTVYLQMNSLKPEDTAVYYCNGERRTYRVALQYRRYDYWGQGTQVTVSS | high polyreactivity |
| QVQLVESGGGLVQAGGSLRLICAAYGITIGVYAMGWYRQAPVKERELVAAISSSGDTTYYADSVKGRFTISRDNAKNTVYLQKNSLKPEDTAVYYSAAYSHHQFSRSEYYYWGQGTQVTVSS | low polyreactivity |
| QVQLVESGGGLVQAGGSLRLICADSGRIFGWYAMGWYRQAPGKERELVAAITSGSRTSYADSVKGRFTISRDNAKNTVYLQMNSLKPEDTAVYYCNRVSHLDYYWGQGTQVTVSS | high polyreactivity |
| QVQLVESGGGLVQAGGSLRLICADSRRTFVSYTMGWYRQAPAKERELVAAISSGGSTTYADSVKGRFTISRDNAKNTVYLQMNSLKPEDTAVYYGNARYGWSYWSKYDYWGQGTQVNVSS | high polyreactivity |
| QVQLVESGGGLVQAGGSLRLICDASGIIFFPYAMGWYRQAPGKEREFVAAIRATGDNTYYADSVKGRFTISRDNAKNTVYLQMNSLKPEDTAVYYCAADRGTYQVDYWGQGTQVTVSS | low polyreactivity |
| QVQLVESGGGLVQAGGSLRLICDASGRILTGNAMGWYRQAPGKERELVAAISYNGGRTYYADSVKGRFTISRDNAKNTVYLQMNSLKPEDTAVYYCNVVRRQLQTSHPYGYWGQGTQVTVSS | low polyreactivity |
| QVQLVESGGGLVQAGGSLRLICDASGSTFAYNDMGWYRQAPGKERELVAAITYSGGSTYYADSVKGRFTISRDNAKNTVSLQMNSLKPEDTAVYYCNAYTGYPYEYWGQGTQVTVSS | low polyreactivity |
| QVQLVESGGGLVQAGGSLRLICDASGSTFGYYAIGGYRQAPGKERELVAVINKSGGRTYYADSVKGRFTISRDNAKNTVYLQMNSLKPEDTAVYYCATRVTSTRHDYWGQGTQVTVSS | high polyreactivity |
| QVQLVESGGGLVQAGGSLRLICDDSGSILSYNTMGWYRQAPGKEREFVAGITYSGSRTYYADSVKGRFTISRDNAKNTVSLQMNSLKPVDTAVYYCAKRNYYRMYWGQGTQVTVSS | high polyreactivity |
| QVQLVESGGGLVQAGGSLRLICPASGSIFYYYAMGWYRQAPGKERELVAAISYSDDDTYYADSVKGRFTISRDNAKNTVYLQMNSLKPEDTAVYYCAAEFTIAWSYTMDYWVQGTQVTVSS | high polyreactivity |
| QVQLVESGGGLVQAGGSLRLICSASGRTFLYNSMGWYRQAPGKERELVAAIRWSGGTTYYADSVKGRFTISRDNAKYNVYLQMNSLKPEDTAVYYCAARWGPYYGGVRYGYWGQGTQVTVSS | high polyreactivity |
| QVQLVESGGGLVQAGGSLRLIFAASGSIFNRYTMGWYRQAPGKERELVADISKSGTRTYYADSVKGRFTISRDNAKNTVYLQMNSLKPEDTAVYYCAKSSVAVYQTRYDYWGQGTQVTVSS | high polyreactivity |
| QVQLVESGGGLVQAGGSLRLISAASGFIFRYNAMGWYRQAPGKESELVATISSGGGNTYYADSVKGRFTISRDNAKNTVYLQMNSLKPEDTAVYYCAARRYYGVYYAFYYWGQGTQVTVSS | high polyreactivity |
| QVQLVESGGGLVQAGGSLRLISAASGITFDYYAIGWSRQAPGKERELVAAITNDGRTYYADSVKGRFTISRDNAKNTVYLQMNSLKPEDTAVYYCARLTFREYDYWGQGTQVTVSS | low polyreactivity |
| QVQLVESGGGLVQAGGSLRLISPASRFTFRYYAMGWYRQAPGKERELVAAISRGGTTNYADSVKGRFTISRDNAKNTVYLQMNSLKPEDTAVYYCATTRYDYWGQGTQVTVSS | high polyreactivity |
| QVQLVESGGGLVQAGGSLRLNCAASGLIFSNNAMGWYRQAHRKERDLVAAITSSGSRTYYADSVKGRFTISRDNAQITVYLQMNSLKPEDTAVYYCAAYEVPYQRRYGYWGQGTQVTVSS | high polyreactivity |
